{
  "source": "the supplement of paper PMC10567573",
  "parents": {"B1": {"name": "FUT8 (parent)", "chain": "YPSYKVREKIETVKYPTYPEAEK"}},
  "data": [
    {"variants_of": "B1", "assay": "protein stability index of a GFP-peptide fusion (GPS, HEK-293T) (PSI 1-6); higher = more stable", "settings": "c terminus: native", "values": [
      {"variant": "YPSYKVPEKIETVKYPTYPEAEK", "protein stability index": 4.67},
      {"variant": "YPSYKVWEKIETVKYPTYPEAEK", "protein stability index": 2.79},
      {"variant": "YPSYKVFEKIETVKYPTYPEAEK", "protein stability index": 2.52},
      {"variant": "YPSYKVGEKIETVKYPTYPEAEK", "protein stability index": 4.7},
      {"variant": "YPSYKVLEKIETVKYPTYPEAEK", "protein stability index": 4.48},
      {"variant": "YPSYKVCEKIETVKYPTYPEAEK", "protein stability index": 3.76},
      {"variant": "YPSYKVKEKIETVKYPTYPEAEK", "protein stability index": 4.16},
      {"variant": "YPSYKVYEKIETVKYPTYPEAEK", "protein stability index": 3.6},
      {"variant": "YPSYKVIEKIETVKYPTYPEAEK", "protein stability index": 3.73},
      {"variant": "YPSYKVTEKIETVKYPTYPEAEK", "protein stability index": 3.96},
      {"variant": "YPSYKVAEKIETVKYPTYPEAEK", "protein stability index": 4.54},
      {"variant": "YPSYKVMEKIETVKYPTYPEAEK", "protein stability index": 4.48},
      {"variant": "YPSYKVVEKIETVKYPTYPEAEK", "protein stability index": 3.85},
      {"variant": "YPSYKVSEKIETVKYPTYPEAEK", "protein stability index": 4.49},
      {"variant": "YPSYKVDEKIETVKYPTYPEAEK", "protein stability index": 4.67},
      {"variant": "YPSYKVRFKIETVKYPTYPEAEK", "protein stability index": 2.02},
      {"variant": "YPSYKVRPKIETVKYPTYPEAEK", "protein stability index": 3.72},
      {"variant": "YPSYKVRRKIETVKYPTYPEAEK", "protein stability index": 3.74},
      {"variant": "YPSYKVRLKIETVKYPTYPEAEK", "protein stability index": 1.99},
      {"variant": "YPSYKVRAKIETVKYPTYPEAEK", "protein stability index": 3.96},
      {"variant": "YPSYKVRWKIETVKYPTYPEAEK", "protein stability index": 2.13},
      {"variant": "YPSYKVRCKIETVKYPTYPEAEK", "protein stability index": 2.62},
      {"variant": "YPSYKVRTKIETVKYPTYPEAEK", "protein stability index": 3.43},
      {"variant": "YPSYKVRKKIETVKYPTYPEAEK", "protein stability index": 3.59},
      {"variant": "YPSYKVRSKIETVKYPTYPEAEK", "protein stability index": 3.57},
      {"variant": "YPSYKVRIKIETVKYPTYPEAEK", "protein stability index": 2.62},
      {"variant": "YPSYKVRMKIETVKYPTYPEAEK", "protein stability index": 2.69},
      {"variant": "YPSYKVRNKIETVKYPTYPEAEK", "protein stability index": 4.27},
      {"variant": "YPSYKVRDKIETVKYPTYPEAEK", "protein stability index": 4.26},
      {"variant": "YPSYKVRHKIETVKYPTYPEAEK", "protein stability index": 4.28},
      {"variant": "YPSYKVRQKIETVKYPTYPEAEK", "protein stability index": 4.01},
      {"variant": "YPSYKVRYKIETVKYPTYPEAEK", "protein stability index": 2.28},
      {"variant": "YPSYKVRVKIETVKYPTYPEAEK", "protein stability index": 1.75},
      {"variant": "YPSYKVRGKIETVKYPTYPEAEK", "protein stability index": 3.92},
      {"variant": "YPSYKVREFIETVKYPTYPEAEK", "protein stability index": 2.64},
      {"variant": "YPSYKVRELIETVKYPTYPEAEK", "protein stability index": 2.91},
      {"variant": "YPSYKVREDIETVKYPTYPEAEK", "protein stability index": 4.14},
      {"variant": "YPSYKVREGIETVKYPTYPEAEK", "protein stability index": 4.12},
      {"variant": "YPSYKVREEIETVKYPTYPEAEK", "protein stability index": 4.5},
      {"variant": "YPSYKVREIIETVKYPTYPEAEK", "protein stability index": 3.1},
      {"variant": "YPSYKVREAIETVKYPTYPEAEK", "protein stability index": 4.31},
      {"variant": "YPSYKVRECIETVKYPTYPEAEK", "protein stability index": 4.43},
      {"variant": "YPSYKVREHIETVKYPTYPEAEK", "protein stability index": 3.62},
      {"variant": "YPVYKVREKIETVKYPTYPEAEK", "protein stability index": 3.66},
      {"variant": "YPHYKVREKIETVKYPTYPEAEK", "protein stability index": 4.39},
      {"variant": "YPRYKVREKIETVKYPTYPEAEK", "protein stability index": 3.79},
      {"variant": "YPCYKVREKIETVKYPTYPEAEK", "protein stability index": 4.08},
      {"variant": "YPAYKVREKIETVKYPTYPEAEK", "protein stability index": 4.02}
    ]}
  ]
}
